Reference: US20230374151A1 (GlaxoSmithKline, published 2023)

Tests used:
[1] = target: T1, TnMUC1 (aberrantly glycosylated MUC1) on tumour cells (human, UniProt P15941 24-1255, truncated Tn / sialyl-Tn O-glycans on Ser/Thr (aberrant glycosylation)); assay: flow cytometry on MDA-MB-468 cells, scFv pre-complexed with anti-His-PE; mean
T1 construct: whole, on cells; also called Tn/STnMUC-1; TnMUC1-positive MDA-MB-468 cells
Experimental: (§1) Cells were detached and cells were re-suspended in appropriate cell culture media or transferred to Falcon tube. A sample of each cell suspension was then diluted 1:5 with DPBS (to give a final volume of 0.5 mL) and the number of viable cells per mL (based on trypan blue exclusion) were determined for each cell suspension using the Vi-CELL XR Cell Viability Analyser (Default cell type setting used). Cell suspensions were then diluted in appropriate cell culture media and seeded into fresh cell culture flasks at a density of 6.25×10⁴ viable cells per cm². Cells were incubated in a humidified incubator at 37° C. with 5% CO₂ for 48 hours (or until required). On the day of assay, cells were detached from flasks, resuspended in appropriate cell culture media (if appropriate) and the number of viable cells per mL counted as described previously. Cell suspensions were then centrifuged at 500×g for 5 minutes before resuspending cell pellets in FACS Buffer at a density of 4×10⁶ viable cells per mL.
(§2) scFv proteins were diluted to 62.5 nM in DPBS and dispensed into row A of a 96-well V-bottom plate before performing a 1:4 serial dilution in FACS Buffer down the plate to give 25 μL (final volume) per well (FACS Buffer in row H only). […]

[2] = target: T1, TnMUC1 (aberrantly glycosylated MUC1) …; assay: flow cytometry on MDA-MB-468 cells, scFv pre-complexed with anti-His-PE; experiment 75-13
Experimental: as §1, §2

[3] = target: T1, TnMUC1 (aberrantly glycosylated MUC1) …; assay: flow cytometry on MDA-MB-468 cells, scFv pre-complexed with anti-His-PE; experiment 75-14
Experimental: as §1, §2

[4] = target: T1, TnMUC1 (aberrantly glycosylated MUC1) …; assay: flow cytometry on TnMUC1-positive Jurkat cells, His-tagged scFv pre-complexed with anti-His-PE, n=1 representative

T1 sequence (P15941 24-1255): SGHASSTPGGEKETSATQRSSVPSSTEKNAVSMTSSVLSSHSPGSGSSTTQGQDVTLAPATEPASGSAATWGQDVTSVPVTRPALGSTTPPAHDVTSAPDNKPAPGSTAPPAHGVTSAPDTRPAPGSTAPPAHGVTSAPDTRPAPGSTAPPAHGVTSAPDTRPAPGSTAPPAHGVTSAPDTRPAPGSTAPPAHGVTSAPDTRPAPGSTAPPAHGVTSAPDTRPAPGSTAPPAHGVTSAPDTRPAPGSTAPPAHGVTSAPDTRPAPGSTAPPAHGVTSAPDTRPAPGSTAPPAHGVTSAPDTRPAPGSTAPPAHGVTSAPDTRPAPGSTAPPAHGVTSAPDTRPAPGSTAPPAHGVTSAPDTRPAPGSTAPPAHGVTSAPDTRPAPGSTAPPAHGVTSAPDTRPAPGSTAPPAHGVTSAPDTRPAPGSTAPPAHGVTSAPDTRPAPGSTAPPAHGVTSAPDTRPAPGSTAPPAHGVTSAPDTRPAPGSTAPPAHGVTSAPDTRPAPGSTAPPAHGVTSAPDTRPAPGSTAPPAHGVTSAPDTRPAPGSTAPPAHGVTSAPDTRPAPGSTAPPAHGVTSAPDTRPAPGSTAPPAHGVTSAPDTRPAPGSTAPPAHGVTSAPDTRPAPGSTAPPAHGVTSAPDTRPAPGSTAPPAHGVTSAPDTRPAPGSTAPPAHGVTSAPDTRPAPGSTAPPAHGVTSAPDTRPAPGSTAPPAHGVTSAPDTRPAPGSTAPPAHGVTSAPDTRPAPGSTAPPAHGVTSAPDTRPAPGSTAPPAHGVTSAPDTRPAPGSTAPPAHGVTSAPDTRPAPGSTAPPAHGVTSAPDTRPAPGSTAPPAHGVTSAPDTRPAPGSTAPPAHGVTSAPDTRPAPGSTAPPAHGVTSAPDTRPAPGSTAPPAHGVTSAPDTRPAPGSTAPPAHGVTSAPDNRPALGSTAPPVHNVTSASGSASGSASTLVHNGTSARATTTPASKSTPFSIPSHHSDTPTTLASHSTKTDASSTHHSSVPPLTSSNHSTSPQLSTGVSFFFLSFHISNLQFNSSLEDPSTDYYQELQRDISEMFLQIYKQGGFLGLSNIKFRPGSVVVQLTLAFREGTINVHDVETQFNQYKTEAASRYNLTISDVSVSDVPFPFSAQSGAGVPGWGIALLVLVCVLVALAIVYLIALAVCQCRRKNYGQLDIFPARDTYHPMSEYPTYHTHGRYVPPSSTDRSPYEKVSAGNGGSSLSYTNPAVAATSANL

B1: humanised anti-TnMUC1 scFv protein 9P1 (88A), VL-VH humanised control (scFv)
scFv: DIVMTQSPDSLAVSLGERATINCKSSQSLLNSGDQKNYLTWYQQKPGQPPKLLIYWASTRESGVPDRFSGSGSGTDFTLTISSLQAEDVAVYYCQNDYSYPLTFGQGTKVEIKGGGGSGGGGSGGGGSGGGGSQVQLVQSGAEVKKTGSSVKVSCKASGYTFTDHAIHWVRQAPGQALEWMGHFSPGNTDIKYNDKFKGRVTLTVDRSMSTAYMELSSLRSEDTAMYYCKTSTFFFDYWGQGTMVTVSSAAAHHHHHH
notes: Control scFv designed from a humanised antibody of WO2015/159076 (10D2 is said to come from Ab2, so 10D1 by implication from Ab1); Neat supernatant of construct 10D1 in the Octet assay; purified protein 9P1 in Biacore and flow cytometry; also called 10D1
B1 was tested, and the EC50 [1] was 3.09 nM, the pEC50 [1] was 8.51 and the EC50 [2] was 3 nM. It also gave a pEC50 [2] of 8.52, an EC50 [3] of 3.18 nM and a pEC50 [3] of 8.5. For the same binder, the “EC50 (read off the curve)” value [4] was about 6 nM.
